Laboratory results: patent US12162892B2, “CD16a binding agents and uses thereof” (KLEO PHARMACEUTICALS, INC., priority 2018, dated 2024)
Values joined by “and” are separate entries in the source; they are usually repeats but may differ in a detail not shown here. Equal values may be shown once.

How the values were obtained:
Assay in all cases: MATE ELISA, interaction with various receptors (Example 55)
Format in all cases: binding
Conditions in all cases: Table 11; three replicate values
[1] = tested on: CD16a 158V
Procedure: (§1) Coat ELISA plates (Costar 3922) using Neutravidin (Thermo 31000) at 5 μg/ml in PBS (100 μl/well) for 1 hour at 37° C. Plates were washed 4 times with PBST (PBS, 0.05% Tween 20-200 μl, 1 minute/wash) then blocked using 200 μl 5% bovine serum albumin (BSA, Heat Shock, Fraction V-American Bio AB01088-00100) in PBST for 2 hours at 25° C. with moderate shaking. BSA was removed and plates were washed. […] Protein was removed and plates were washed. MATE labeled antibodies diluted to 1 μg/ml in PBSTB (100 μl/well) were added and incubated for 1 hour at 25° C. with gentle shaking. Wash plates. HRP labeled Mouse Anti-Human IgG, F(ab′)2 (Jackson Immuno Research 209-035-097) diluted 1:2500 in PBSTB was added (100 μl/well) and incubated for 1 hour at 25° C. with gentle shaking. Wash plates. Substrate (Super Signal ELISA Pico Chemiluminescent Substrate-Thermo 37069) was added (100 μl/well) and plates were incubated for 5 minutes at 25° C. with gentle shaking. Luminescence was then measured on the Biotek Synergy H1 microplate reader.
(§2) In some embodiments, “stock” is antibody only, and “control” is an antibody that went through the same procedure except using DMSO only as opposed to a compound. When contacted with targeting moieties such as antibodies in the Examples, compounds, e.g., I-95, I-96, etc. can react through their reactive groups
(§3) [drawing 887] with reactive groups of targeting moieties (e.g., —NH2) to form conjugates by forming amide groups (—C(O)NH—).

[2] = target: CD16a158F (Homo sapiens, UniProt P08637)
Procedure: as §1, §2, §3

[3] = target: CD38 (Homo sapiens, UniProt P28907)
Procedure: as §1, §2, §3

[4] = target: CD3ed (Homo sapiens, UniProt P04234+P07766)
Procedure: as §1, §2, §3

[5] = target: T1, CD32b (Homo sapiens, UniProt P31994)
T1 sequence (P31994 43-310): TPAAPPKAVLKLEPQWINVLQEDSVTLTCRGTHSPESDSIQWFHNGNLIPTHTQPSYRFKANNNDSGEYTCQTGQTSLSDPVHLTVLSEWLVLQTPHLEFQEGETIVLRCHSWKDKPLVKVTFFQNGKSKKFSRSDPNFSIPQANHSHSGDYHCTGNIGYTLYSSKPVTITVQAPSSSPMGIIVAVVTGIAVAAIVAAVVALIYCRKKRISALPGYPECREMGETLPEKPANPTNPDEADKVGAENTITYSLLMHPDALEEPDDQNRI
Procedure: as §1, §2, §3

[6] = target: CD16b (Homo sapiens, UniProt O75015)
Procedure: as §1, §2, §3

[7] = tested on: CD32a-R167
Procedure: as §1, §2, §3

[8] = target: T2, CD32a H167 (Homo sapiens, UniProt P12318)
T2 sequence (P12318 36-218 limits assumed): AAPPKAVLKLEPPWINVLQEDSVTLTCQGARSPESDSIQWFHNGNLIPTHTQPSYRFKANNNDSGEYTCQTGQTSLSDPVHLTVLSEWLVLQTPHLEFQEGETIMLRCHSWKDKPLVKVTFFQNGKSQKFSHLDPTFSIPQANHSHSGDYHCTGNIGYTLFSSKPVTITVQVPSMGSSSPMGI
Procedure: as §1, §2, §3

Chain of CD16b (O75015 17-200): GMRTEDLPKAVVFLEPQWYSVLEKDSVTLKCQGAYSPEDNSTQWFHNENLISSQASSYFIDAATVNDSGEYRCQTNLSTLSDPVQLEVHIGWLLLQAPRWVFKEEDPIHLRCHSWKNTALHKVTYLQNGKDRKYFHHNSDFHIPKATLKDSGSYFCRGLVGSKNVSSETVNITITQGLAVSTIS
Chain of CD3ed (P07766 23-126 limits assumed): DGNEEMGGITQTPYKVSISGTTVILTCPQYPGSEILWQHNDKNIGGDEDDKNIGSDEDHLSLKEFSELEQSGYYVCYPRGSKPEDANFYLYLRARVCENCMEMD
Chain of CD3ed (P04234 22-105 limits assumed): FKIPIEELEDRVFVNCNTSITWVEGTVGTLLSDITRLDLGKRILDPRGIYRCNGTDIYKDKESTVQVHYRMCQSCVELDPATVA
Chain of CD16a158F (P08637 17-208 limits assumed): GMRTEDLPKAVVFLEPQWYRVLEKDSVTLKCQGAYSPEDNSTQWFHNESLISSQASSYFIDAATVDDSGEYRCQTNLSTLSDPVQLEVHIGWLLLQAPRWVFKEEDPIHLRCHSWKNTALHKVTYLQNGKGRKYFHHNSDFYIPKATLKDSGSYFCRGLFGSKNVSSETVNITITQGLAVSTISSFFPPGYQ

## Daratumumab Control: "'control' is an antibody that went through the same procedure except using DMSO only as opposed to a compound"
[1]
  MATE ELISA Results CD16a 158V: 1407940 and 1365053 and 1337882
[2]
  MATE ELISA Results CD16a 158F: 82022 and 81780 and 84907
[3]
  MATE ELISA Results CD38: 2893900 and 2774268 and 2739576
[4]
  MATE ELISA Results CD3ed: 219 and 257 and 505
[5]
  MATE ELISA Results CD32b: 9479 and 9358 and 9228
[6]
  MATE ELISA Results CD16b: 3125 and 3086 and 3079
[7]
  MATE ELISA Results CD32a R157: 125444 and 122409 and 116704
[8]
  MATE ELISA Results CD32a H167: 485766 and 481839 and 470053
